Columns and labels:
AtMIN proteins = experiment: Immunoblot of AtMIN proteins co-expressed with HopM1 in yeast; format: cell-based, Arabidopsis thaliana; details: co-expression in yeast
From the text: AtMIN fusion proteins expressed from pB42AD were visualized by the HA epitope antibody, as was AtMIN10-HA. HopM1 fusion proteins expressed from pGilda were visualized by the LexA antibody. Coomassie Brilliant Blue-stained gels were used as loading controls. […] AtMIN12 (a putative protein predicted to be targeted to the chloroplast) was not destabilized.
HopM11-300 or full-length HopM1 pGILDA and each individual test AtMIN pB42AD were co-transformed into yeast cells as described in EXAMPLE III.
Immunoblot analysis was then performed on yeast cells lines that expressed one each of the 21 AtMIN proteins co-expressed with either HopM11-300 or full-length HopM1(1-712). […] For comparison, AtMIN12 (a hypothetical protein predicted to be targeted to the chloroplast) was not destabilized (FIG. 6A).

AtMIN10-HA = experiment: Immunoblot of AtMIN10-HA in transgenic plants infiltrated with ΔCEL mutant bacteria (pORF43); format: in vivo, Arabidopsis; details: HopM1 delivered by 1×10^8 CFU/ml ΔCEL mutant bacteria (pORF43)
Protocol: (§1) In brief: leaf disc fractions were homogenized in 1×SDS-polyacrylamide gel electrophoresis (PAGE) sample buffer, boiled for 5 min, and centrifuged for 2 minutes. Proteins in the supernatant were separated on SDS-PAGE gels and transferred to Immobilon-P membrane for immunoblotting procedures (Millipore Corp., Bedford, Mass.).
Furthermore AtMIN10-HA stably expressed in transgenic plants was also destabilized by HopM1. Leaves of AtMIN10-HA transgenic plants were infiltrated with water or 1×10^8 CFU/ml ΔCEL mutant bacteria or ΔCEL mutant bacteria (pORF43). AtMIN10-HA was detected using the HA epitope antibody.

hrcC mutant = experiment: Bacterial multiplication in HopM1 transgenic Arabidopsis plants; format: in vivo, Pseudomonas syringae; details: full-length HopM1 expressed in transgenic Arabidopsis
Protocol: (§2) Following inoculation, infected plants were monitored daily over a 3- to 4-day period for symptom development and bacterial multiplication. For experiments described in FIGS. 1 and 5, plants were sprayed with 30 μM dexamethasone (DEX) 24 h before bacterial inoculation (1×10^6 cfu/ml).
(§3) Leaves were harvested and surface sterilized as follows: 1) whole leaves were removed from a host plant and gently mixed in a 70% ethanol solution for 1 minute. Leaves were blotted briefly on paper towels then rinsed in sterile distilled water for 1 minute, then blotted dry on paper towels. Leaf disks were excised from leaves with a 0.5 cm^2 or smaller cork borer, depending on the size of the sample leaves; 2) leaf disks from the leaves of 2 or more independent replicate plants were pooled for a single tissue sample and placed in a 1.5-mL microfuge tube with 100 μL sterile distilled water, the amount of leaf tissue per tube was recorded as leaf surface area. Three or more samples were harvested for each time point. […] The number of serial dilutions necessary to get countable colonies were determined for each sample, however dilutions to 10^−7 were usually sufficient for any bacterial strain; 7) The samples were plated on the appropriate medium (e.g., Low salt Luria Bertani) supplemented with the necessary antibiotics to select for the specific inoculated bacterial strain. […]

Pst DC3000 = experiment: Bacterial multiplication and disease symptoms in HopM1 transgenic Arabidopsis plants; format: in vivo, Pseudomonas syringae; details: full-length HopM1 expressed in transgenic Arabidopsis
Protocol: as §2, §3

Pst DC3000 ΔCEL mutant = experiment: as above; format: in vivo, Pseudomonas syringae; details: protein expressed in transgenic Arabidopsis (Col-0 gl1), DEX-induced
Protocol: as §2, §3

AtMIN7 = experiment: Immunoblot of endogenous AtMIN7 in Arabidopsis leaves infiltrated with ΔCEL mutant bacteria (pORF43); format: in vivo; details: HopM1 delivered by 1×10^8 CFU/ml ΔCEL mutant bacteria (pORF43)
Protocol: as §1
AtMIN7 is a low-abundance protein in Arabidopsis plants, however it is detected with a rabbit polyclonal antibody, described herein. […] AtMIN7 was absent on the immunoblots of leaves infiltrated with ΔCEL mutant bacteria (pORF43) but not the leaves infiltrated with water or ΔCEL mutant bacteria (FIG. 2C).

B1: full-length HopM1: Pst DC3000 type III effector, 712-aa virulence protein (SEQ ID NO:34) (protein)
chain: MISSRIGGAGGVELSRVNQQHDTVPAQTAHPNAVTAGMNPPLTPDQSGSHATESSSAGAARLNVAARHTQLLQAFKAEHGTAPVSGAPMISSRAALLIGSLLQAEPLPFEVMAEKLSPERYQLKQFQGSDLQQRLEKFAQPGQIPDKAEVGQLIKGFAQSVADQLEHFQLMHDASPATVGQHAKADKATLAVSQTALGEYAGRASKAIGEGLSNSIASLDEHISALDLTLQDAEQGNKESLHADRQALVDAKTTLVGLHADFVKSPEAKRLASVAAHTQLDNVVSDLVTARNTVGGWKGAGPIVAAAVPQFLSSMTHLGYVRLSTSDKLRDTIPETSSDANMLKASIIGMVAGIAHETVNSVVKPMFQAALQKTGLNERLNMVPMKAVDTNTVIPDPFELKSEHGELVKKTPEEVAQDKAFVKSERALLNQKKVQGSSTHPVGELMAYSAFGGSQAVRQMLNDVHQINGQTLSARALASGFGGAVSASSQTLLQLKSNYVDPQGRKIPVFTPDRAESDLKKDLLKGMDLREPSVRTTFYSKALSGIQSSALTSALPPVTAQAEGASGTLSAGAILRNMALAATGSVSYLSTLYTNQSVTAEAKALKAAGMGGATPMLDRTETALNNIRHPNRESLPHTFQKSTLSGIPRVAENAYHMGRGALQLPTQMAVDTVRVVDEGVLNAVASAREALKQPTKDDDALRALEEGLLDPR
modifications: 6xHis tag; Pseudomonas syringae pv. tomato str. DC3000
- destabilization of AtMIN proteins in yeast (AtMIN proteins): destabilized
- stability of AtMIN10-HA (AtMIN10-HA): destabilized
- complementation effect on multiplication (hrcC mutant): did not show this effect
- complementation effect on multiplication (Pst DC3000): did not show this effect
- complementation of the virulence defect (multiplication, disease symptoms) (Pst DC3000 ΔCEL mutant): almost fully complemented
- endogenous AtMIN7 protein on immunoblot (AtMIN7): absent

Reference: patent US8058507B2, “HOPM1 mediated disease resistance to Pseudomonas syringae in Arabidopsis” (priority 2007, dated 2011)
